In one data set the test system is α2-adrenoceptors. Briefly: α2-adrenoreceptor membrane binding (3H-RS-79948-197).
Data set [1] deals with MCP-1 induced THP-1 migration. Briefly: THP-1 trans-well migration assay, MCP-1 as chemoattractant. The data set is classed as cell-based, human. The conditions noted are these: for EC50: Homo sapiens. The procedure, abridged:
(§1)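 5×10^4 THP-1 cells with serially diluted peptide in upper chamber, 5 µm filter, recombinant human chemokine 50 ng/ml (5.9 nM) in lower chamber. Incubated 4 h at 37 °C. Migrated cells counted by MTT staining, A595 read against a THP-1 standard curve.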

Data set [2] relates to SDF-1α induced THP-1 migration. As to the kind of experiment: THP-1 trans-well migration assay, SDF-1α as chemoattractant. The data set is classed as cell-based, human. The following applies: ns = not significantly different from control. The procedure, abridged: as §1
The test system of data set [3] is MIP1α induced THP-1 migration. As to the kind of experiment: THP-1 trans-well migration assay, MIP1α as chemoattractant. The conditions noted are these: ns = not significantly different from control. The data set is classed as cell-based, human. The procedure, abridged:
as §1

Data set [4] addresses T1, Duffy Antigen Receptor for Chemokines (DARC) (Homo sapiens, UniProt Q16570).
T1 sequence (Q16570 1-336): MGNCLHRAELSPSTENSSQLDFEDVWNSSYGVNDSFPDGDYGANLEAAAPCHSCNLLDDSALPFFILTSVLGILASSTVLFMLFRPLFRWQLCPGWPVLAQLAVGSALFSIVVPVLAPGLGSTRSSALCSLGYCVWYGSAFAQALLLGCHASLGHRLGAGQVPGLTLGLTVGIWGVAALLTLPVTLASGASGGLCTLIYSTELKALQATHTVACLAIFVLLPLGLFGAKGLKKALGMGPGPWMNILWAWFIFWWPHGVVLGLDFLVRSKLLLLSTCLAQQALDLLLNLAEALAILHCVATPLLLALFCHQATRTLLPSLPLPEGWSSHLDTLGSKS
As to the kind of experiment: DARC binding: competition with 125I-MCP-1 on red blood cells.

The target in another data set is CCR5/CXCR4. As to the kind of experiment: Affinity for CCR5/CXCR4. The format is binding. The conditions noted are these: read-out: affinity constant for CCR5/CXCR4.
The next data set deals with gp120. The following applies: ns = not significantly different from control; >100 = ED50 not determined.
A further data set relates to HIV. The format is cell-based. The conditions noted are these: ns = not significantly different from control.
The conditions of data set [5]: rat, in vivo.
For data set [6] the following is noted: mouse, in vivo, sc.
Data set [7] addresses T2, short splice variant D2 dopamine receptor (Homo sapiens, UniProt P14416).
T2 construct: purchased RBI/Sigma D-179
Briefly: Dopamine receptor membrane binding (3H-Spiperone). The following applies: 100 μM highest concentration tested; read-out: ED50 for competition of spiperone binding to short splice variant D2 dopamine receptor. The procedure:
For dopamine receptor binding, membranes (D-179, RBI/Sigma) are diluted into binding buffer (75 mM Tris pH 7.4, 12.5 mM MgCl2 and 2 mM EDTA). For example, 10 μl of membranes are diluted in 500 μl of binding buffer (i.e., 1:50 dilution), which is aliquoted into labelled tubes. Cold competitor or test competitor is added, (e.g., 5 μl of 100× stock solution; 5 μl of 1 mM haloperidol solution (H-100, RBI/Sigma in DMSO). Radioligand is then added (3H-Spiperone, TRK 818, Amersham, 250 μCi in 250 μl, 10.5 μM at 95 Ci/mmol). For competition studies, 0.5 nM is used. A 100× stock (i.e., 50 nM) is made by diluting the commercial stock 1:210 in binding buffer, and 5 μl is added to every tube. Control tubes have radioligand but no membranes. The mixtures are vortexed, then spun very briefly. The mixtures are then incubated for 1 hour at 27° C. in a water bath. The mixture is filtered through GF/C filters over a vacuum. Each filter is pre-soaked in polyethyleneimine (0.3% in water; add 1 ml of 10% stock (P-261; RBI/Sigma) to 33 ml of MilliQ water). The tubes are washed with 2-3 ml of wash buffer (50 mM Tris pH 7.4) and the wash filtered. The filters are then rinsed with 3×5 ml of wash buffer, air dried, placed in a scintillation vial and 4.5 ml of scintillant added. The activity on the filter is then determined.

The target in a further data set is T3, CCR5 (Homo sapiens, UniProt P51681).
T3 construct: host or cells: HOS cells
Briefly: Scatchard analysis of labeled RANTES binding to CCR5 HOS cells. The conditions noted are these: 4° C., 2 hours, read-out: affinity of RANTES binding sites. The procedure:
To establish the kinetics of labeled RANTES binding to CCR5, CCR5 cells and their parental line were exposed to labeled RANTES at 0.05 nM in the absence or presence of a 500-fold excess of unlabeled RANTES. Binding was performed at either 4° C. or room temperature for various periods between 30 minutes and 4 hours. All data was collected in triplicate. Equilibrium was achieved slightly quicker at room temperature than 4° C., and that in both cases binding was complete by 2 hours (FIG. 22A). […] Based on this experiment, all binding experiments were done at 4° C. for 2 hours.
A Scatchard analysis was performed under the conditions determined to represent equilibrium binding. The purpose of this experiment was to estimate the number of high affinity binding sites (CCR5 receptors) on the cell surface, since the full Scatchard analysis is performed under conditions where the binding was limited by availability of binding sites, not by number of molecules RANTES added. The result indicated about 80,000 binding sites per cell on the parental line and about 200,000-400,000 binding sites per cell on the high expressing CCR5 line. Using this information, the conditions necessary to perform a full 12-point Scatchard analysis at equilibrium, limited by binding site number, were calculated. […]

Read-outs that look alike come from different tables or passages of the source. Positions of bridges follow the written chain, without caps; N, C: chain ends. Non-standard residues stand in square brackets, D forms with d. No end group written: not given here.

The source of these data is US7989466B2, “Methods to inhibit or augment an inflammatory response” (Cambridge Enterprise Limited, priority 1999, dated 2011).

T3 sequence (P51681 whole entry): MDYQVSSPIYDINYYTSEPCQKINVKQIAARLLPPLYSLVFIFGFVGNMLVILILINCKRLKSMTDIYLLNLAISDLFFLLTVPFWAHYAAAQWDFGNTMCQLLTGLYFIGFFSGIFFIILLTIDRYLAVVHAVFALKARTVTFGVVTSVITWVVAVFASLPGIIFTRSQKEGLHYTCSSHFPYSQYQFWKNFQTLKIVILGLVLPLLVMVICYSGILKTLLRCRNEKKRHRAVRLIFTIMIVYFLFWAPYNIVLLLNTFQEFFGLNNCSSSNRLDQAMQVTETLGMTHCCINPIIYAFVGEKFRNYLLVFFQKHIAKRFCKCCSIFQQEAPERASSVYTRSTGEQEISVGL
T2 sequence (P14416 1-414 isoform P14416-2): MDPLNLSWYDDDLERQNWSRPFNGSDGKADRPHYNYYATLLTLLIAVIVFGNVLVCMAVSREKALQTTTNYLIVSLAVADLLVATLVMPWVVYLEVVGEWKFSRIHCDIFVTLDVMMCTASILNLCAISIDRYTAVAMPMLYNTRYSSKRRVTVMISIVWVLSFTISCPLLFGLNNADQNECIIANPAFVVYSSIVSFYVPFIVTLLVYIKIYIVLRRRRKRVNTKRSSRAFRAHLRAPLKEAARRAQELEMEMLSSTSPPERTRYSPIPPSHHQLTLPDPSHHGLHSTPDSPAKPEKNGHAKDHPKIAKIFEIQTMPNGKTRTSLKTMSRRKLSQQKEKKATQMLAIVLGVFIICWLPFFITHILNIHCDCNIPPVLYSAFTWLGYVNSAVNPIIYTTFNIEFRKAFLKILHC

With `NC(=O)C1C(O)CCC2CN3CCc4c([nH]c5ccccc45)C3CC21` (stereo not drawn) [Y-II, Yohimban-17-amide], the “selectivity for chemokine inhibition of alpha-adrenoreceptor binding” value in the data set with α2-adrenoceptors was 1,500 fold. Moreover, in [1] (THP-1, read-out: ED50 versus MCP-1 induced chemotaxis of THP-1), the EC50 came to 0.5 nM.

For the compound “Vaekpcksstirrys (V[dA][dE][dK][dP][dC][dK][dS][dS][dT][dI][dR][dR][dY][dS]) [LRD peptide 2(1-15)[MCP-1]]”, the “MCP-1 ED-50” value in data set [1] (ns = not significantly different from control) was “ns”. Also, in [2], the “SDF1a ED-50” value was “ns”. Moreover, the “MIPIa ED-50” value in [3] was “ns”. In data set [4], the “decrease in Duffy binding relative to the LFL peptide” value is recorded as ~100 fold. In data set [4] (red blood cells), the “association (affinity) constant for DARC” value came out at 25 µM. Further, the Kd on CCR5/CXCR4 was ≤ 100 nM. Further, the “gp120 ED-50” value with gp120 stood at 3 µM. For the same compound, in the data set with HIV, the “% virus inhibition” value is 72%.

On to “^3H-CRD-L-Leu4Ile11Cys13 peptide 3(3-12)[MCP-1]: diastereomer of CRD-Leu4Ile11Cys13 peptide 3(3-12)[MCP-1] with L-leucine instead of D-leucine ([dC][dQ][dI][dW][dK][dQ][dK][dP][dD]L[dC]-NH2; disulfide 1-11; also: 3H-labelled, site not given here)”, for which, in data set [5], the A entry is “A: 48.88 μg/mL”, the AUC amounted to 31430 ng·h/mL, the B entry was “B: 63.64 μg/mL” and the Maximal concentration was 1,710 ng mL^−1. In [5], the Maximal concentration/dose came to 0.000017; the volume of distribution (Vd) worked out at 0.36 L/kg; the “dose accounted for in the 25 tissues and organs assayed at 3 hours post injection” value is on record as “about 11 % i.d”; the “dose excreted in urine over the first 2 hours” value is on record as > 80 % i.d. In [5], the “injected radioactivity in the urine with a mass consistent with the intact, cyclized structure” value is > 80%; the “serum concentration at 30 minutes” value was 591 ng/g; the “share of the total counts in the unwashed cell pellet at 10 minutes” value is listed as < 12%; the α entry was “α: 9.59”. For the same compound, in data set [5], the β result was “β: 2.42”. Also, in [5] (iv), the “dose eliminated in the urine over the first 4 hours” value is on record as 86.6+/−16.5 % i.d; the “injected dose present in blood by four hours post injection” value is “about 0.1%”; the “serum concentration at 10 minutes post injection, females” value stood at 1238 ± 138 ng/mL; the “serum concentration at 10 minutes post injection, males” value was 1141 ± 283 ng/mL. In data set [5] (iv), the “serum level at 10 minutes, females” value is reported as 12.45±1.39 % of the injected dose and the “serum level at 10 minutes, males” value came to 14.38±3.46 % i.d. Further, in [5] (iv, 100 ug), the Elimination half-life amounted to 11.4 min, the “alpha-phase T1/2” value is 4.2 min and the “beta-phase T1/2” value turned out to be 17.4 min. The “dose remaining in the blood by 2 hours” value in [5] (iv, 2 h) is “less than 1 % i.d”. For the same compound, the “average serum concentration at 30 minutes post injection” value in [6] came out at 503 ng/g. The “activity in the MCP-1 induced THP-1 migration assay, in words” value in data set [1] was “retained functional activity”.

Take `O=C1CCC(N2C(=O)c3ccccc3C2=O)C(=O)N1` (stereo not drawn) [Thalidomide, reference compound]: the “activity in the MCP-1 induced THP-1 migration assay, in words” value in data set [1] is “at 100 μM also inhibited THP-1 migration induced by MCP-1”. Besides, the EC50 in data set [1] (THP-1, agent with the cells in the upper compartment, n.s. = no statistically significant inhibition (p > 0.05), read-out: ED50 versus MCP-1, inhibition of THP-1 migration) is ~50000 nM. The IC50 in data set [7] was > 100000 nM.

RANTES: the Kd on CCR5 is ~1 nM.

For orientation: AUC means the area under the concentration-time curve, a measure of exposure. As a reminder, the Vd is a proportionality between amount in the body and measured concentration, not a real space.
